Experimental data as given in patent US6767887.

Legend:
[1] = molecular target: T1, GLP-1-(7-36)-NH2, P01275
T1 chain: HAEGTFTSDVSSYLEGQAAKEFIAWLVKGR

[2] = molecular target: T2, [Ala^2,Nle^14,Arg^30]-Ex-3-(1-30)-NH2
T2 chain: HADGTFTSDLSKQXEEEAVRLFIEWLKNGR

B1: dipeptidyl peptidase IV (protein)
chain: MKTPWKVLLGLLGAAALVTIITVPVVLLNKGTDDATADSRKTYTLTDYLKNTYRLKLYSLRWISDHEYLYKQENNILVFNAEYGNSSVFLENSTFDEFGHSINDYSISPDGQFILLEYNYVKQWRHSYTASYDIYDLNKRQLITEERIPNNTQWVTWSPVGHKLAYVWNNDIYVKIEPNLPSYRITWTGKEDIIYNGITDWVYEEEVFSAYSALWWSPNGTFLAYAQFNDTEVPLIEYSFYSDESLQYPKTVRVPYPKAGAVNPTVKFFVVNTDSLSSVTNATSIQITAPASMLIGDHYLCDVTWATQERISLQWLRRIQNYSVMDICDYDESSGRWNCLVARQHIEMSTTGWVGRFRPSEPHFTLDGNSFYKIISNEEGYRHICYFQIDKKDCTFITKGTWEVIGIEALTSDYLYYISNEYKGMPGGRNLYKIQLSDYTKVTCLSCELNPERCQYYSVSFSKEAKYYQLRCSGPGLPLYTLHSSVNDKGLRVLEDNSALDKMLQNVQMPSKKLDFIILNETKFWYQMILPPHFDKSKKYPLLLDVYAGPCSQKADTVFRLNWATYLASTENIIVASFDGRGSGYQGDKIMHAINRRLGTFEVEDQIEAARQFSKMGFVDNKRIAIWGWSYGGYVTSMVLGSGSGVFKCGIAVAPVSRWEYYDSVYTERYMGLPTPEDNLDHYRNSTVMSRAENFKQVEYLLIHGTADDNVHFQQSAQISKALVDVGVDFQAMWYTDEDHGIASSTAHQHIYTHMSHFIKQCFSLP
[1]
  Substrate for DDP-IV: 50% proteolysis
[2]
  Substrate for DDP-IV: no proteolysis
